Laboratory results from the DeepSol protein solubility set.

Assay: soluble on expression in E. coli; label from the status in PepcDB or PDB records

Row | Sequence | soluble on expression in E. coli
1 | MSLDKIFVEEAVSELHTLQDMIRWTVSRFNAANLFYGQGTDNAWDEAVQLILPTLYLPIDVPPHVLSSRLTSSERLRVVERVIKRINDRTPVAYLTNKAWFCGLEFFVDSRVLVPRSPIGELIQNRFEPWLTEEPTRIMDLCTGSGCIAIACANAFPEAEVDAIDISVDALNVAEQNIQDHGLEQQVFPIRSDLFRDLPQEQYDLIVTNPPYVDQEDMDSLPSEFRHEPELGLAAGSDGLKLARRILANAPLYLKENGILVCEVGNSMVHMMEQYPHIPFTWLEFENGGHGVFLLTREQLIDCAADFALYKDEGHHHHHH | soluble
2 | MSEMTKTPTHYRLLSTLKAMGPYLREGQCSERFYLFDCLASCVNDKKSPEKREFWGWWMELTQNEQEMSACYHIGRYTLAGDWVAEAIPESAQAEVNHTQAEFHKKLVKTLRERFEISVTVSTESAPFA | not soluble
3 | MFNYSGLNEECGVFGIWNHPEAAQLTYMGLHSLQHRGQEGAGIVVSDQNELKGERGLGLLTEAIKDDQMERLKGYQHAIGHVRYATSGNKGIENIQPFLYHFYDMSVGICHNGNLINAKSLRQNLEKQGAIFHSSSDTEVIMHLIRRSKAPTFEEALKESLRKVKGGFTFAILTKDALYGAVDPNAIRPLVVGKMKDGTYILASETCAIDVLGAEFVQDIHAGEYVVINDKGITVKSYTHHTTTAISAMEYIYFARPDSTIAGKNVHAVRKASGKKLAQESPVNADMVIGVPNSSLSAASGYAEEIGLPYEMGLVKNQYVARTFIQPTQELREQGVRVKLSAVKDIVDGKNIILVDDSIVRGTTIRRIVKMLKDSGANKVHVRIASPEFMFPSFYGIDVSTTAELISASKSPEEIKDYIGADSLAYLSVDGLIESIGLDYDAPYSGLCVESFTGDYPAGLYDYEANYKAHLSHRQKQYISKNKHFFDSEGNLNV | not soluble
4 | MALLRIFDAHCDALLKLWEDPAREYTDDPAIEANAVRLMEGGVRAQCFAIFVGPNIPFDQKFQVALQQAELFHEKILKKHPQFSFIERWDDLLTLDADQIGAILTLEGADPFGDDPTKLKTLYRLGVRSLGLTWNQANLCADGVGEPRGGGLTEWGKAVVSLNNEHHVLTDVSHLSERGFWDVIEYAQFPVATHSNAKAICKHRRNLTDAQLKALIEAGGFIGIVFHPHFLTGTDDASIDDVMKHIEHICSLGGQKHVGFGSNFDGIPCFVDGLEHAGRFQWFMDELLKRYDEELVRGFAWDNFLKATPISYVEGHHHHHH | soluble
5 | MSRVGVMVLGPAGAGKSTFCNSIISHMQTVGRRAHIVNLDPAAEATKYEFTIDIRDLISLDDVMEEMDLGPNGALIYCFEYLLKNLDWLDEEIGDFNDEYLIFDCPGQIELYTHIPVLPNIVRHLTQQLNFNLCATYLLEAPFVIDSSKFFSGALSAMSAMILLELPHINVLSKLDLIKGDINKKKLKRFLNPDAMLLMETEGMNQASNPKFLRLNQCIANLVDDFGMVQFLPLESNNPDSIETILSYVDDITQWAEGQEQKEPNDQIDVEE | soluble
6 | MSLERLRVAAYCRVSTDSEDQLNSYKSQVQYYTDMIKKNKEWVLADIYADEAITGTQVTKREDFQRMINDCMNGEIDMVITKSISRFARNTLDTLKYVRMLKERNIAVYFEDEKINTLTMDGELLLVVLSSVAQQEVENISANVKKGLKMKMKRGELVGFQGCLGYDYHPEDKTITVNQEEAEIVRYIFNRYVDGAGGSVIGQELENLGYKTKYGSSTWAPSTVIGIIKNEKYKGDILLGKTFTVDPISKRRLENMGEEDKFYMKDHHEPIISEEVFEKAQEILNRRNKNREGHHHHHH | soluble
7 | SSLPLNAIEPCVICQGRPKNGCIVHGKTGHLMACFTCAKKLKKRNKPCPVCRQPIQMIVLTYFP | soluble
8 | MGSDKIHHHHHHMLIISDAHANIHPLKYVIQREKFDKIVFCGDAVDYGPNPGETLDLLKENADVMVSGNHDYAAAYSVDCRCGEENHELSVFTRENITLKKLGKNDISFLRSLPNRMDMEIDGMKFQVMHGSPRDELYGYMYPWSVQDHLRSMLGSPLDPANYVVGHTHYQFLIRYAGNLVINPGSIGQPRDNPMPSYAVYDSSRNSVEFPRFDYDRSKLKEDIRSIISDQEILSGLYRLFSL | not soluble
9 | KTKNEPKVILELAKESDLPEFQKKLQEAFAIAVIETFGDCEDGPIPSDNDVQESFNAPGAVVYHILQDGKNVGGAVVRINSQTNHNSLDLFYVSPEYHSQGIGLSAWKAIEAQYPDTVLWETVTPYFEKRNINFYVNKCGFHIVEFYNEHHSNPHMHRNGR | soluble
10 | MFWKFLVSGLVGSACSAYHRGPTNVSLALDPPTLSIIMDPSKDIVPIRAVIVGGGYAGSKTAYQLDSMFAVTHIDEKNFYELTNDIIPIITNPWKEDVNPKACRRMMVLHRYYLKRSNVVTGTVIGVDAKQVYLRDGRTVPYDLLFLATGERKPFPFQTRERTISGRVQELKRFNEFLQSCKKVAVVGGGPVGTSLAHDLASTRPDLQVHLFHQRAELLPRLPGVCRRHAQEKLLSNPNLHLHLLTRVTDIDGVVLPSNGDKAASSSSPARHSCAGQLVNPPTSNAAVAESSLTLATTNAPWWRSLLNTVWPRRGVVPDQYSVHYDTLQSKVQQQPSILQQVYYGKRDEVAECGVVQARGVEEGFDYVFALTGDTPRPIQCDELEGRSRKLPNILREHETRDGHYRVSTLMQFLDHPNIFGVGRCTNLPVMRGYGSSDIETRTLFRELNSVISNPTTMFLHSRDGVQLAHMRIPRIHVRLGVDDAVGCTPWSGGMTGVSSVHEFMQDRSYLLREFQKPVFYKQQDQAKVKQRMSQWMEEEITDIVDFSHC | not soluble
11 | GMFVQSALHQLKVAVDTSIQMLDQYTEIDLKIAPIQSKRSLFEMYAHLSLICHADLLILNGSTEKELHTFYKEQTPETIAQMQKTMIQGYDLLSKTFLSYSNEQLAEMKTAYWGISYSRFEWLLEIVAHFYHHRGQIHILLCEHMKDPNIPLFQ | soluble
12 | MASTDTYNPTRDDFAAMLDESFAGGNLQESSVIKGKVVAIEKDMAVIDVGLKTEGRVPLREFAGPGRDNEIKVGDTVEVFLDRIENALGEAVLSRDKARREESWGKLEKAFQNNEKVFGVIFNQVKGGFTVDLDGAVAFLPRSQVDIRPIRDVAPLMNNSQPFQILKMDRRRGNIVVSRRTVLEETRAEQRQELVQNLEEGQVIDGVVKNITDYGAFVDLGGIDGLLHVTDIAWRRVNHPTEVLTIGQTVKVKIIKINHETHRISLGMKQLLDDPWQGIEAKYPLNARFTGRVTNITDYGAFVELEPGIEGLIHVSEMSWTKKNMHPGKIVSTSQEVEVQVLEVDSVKRRISLGLKQTMRNPWEVFVEKHPVGSTVEGEVKNKTEFGLFLGLDGDVDGMVHLSDLDWKLPGEQVIDNFKKGDMVKAVVLDVDVEKERISLGVKQLEGDPFAEPGDVKKGAVVTCEVLDVKESGIDVQIVGTDFNTFIKRSELARDRNDQRSDRFAVGEKVDARVIQFDKKARKVQVSIKALEVAEEKEAIAQYGSSDSGATLGDILGTALKQRDKLEHHHHHH | soluble
13 | MGSDKIHHHHHHMPGTAARPAPIRVTYAEVMQRIIGTEVEYGISSPSDPTANPILTSTQAVLAYAAAAGIQRAKRTRWDYEVESPLRDARGFDLSRASGPPPVVDADEVGAANMILTNGARLYVDHAHPEYSAPECTDPLDAVIWDKAGERVMEAAARHVASVPGAAKLQLYKNNVDGKGASYGSHENYLMSRQTPFSAVIAGLTPFLVSRQVVTGSGRVGIGPSGDEPGFQLSQRADYIEVEVGLETTLKRGIINTRDEPHADADKYRRLHVIIGDANLAETSTYLKLGATSLVLDLIEEGMDLSDLALARPVHAVHVISRDPSLRATVAMADGRELTALALQRIYLDRVAKLVDSRDPDPRAAHVVETWAEVLDLLERDPMECAEILDWPAKLRLLEGFRHRENLGWSAPRLHLVDLQYSDVRLDKGLYNRLVARGSMKRLVTEQQVLDAVDSPPTDTRAYFRGECLRRFGADIAAASWDSVIFDLGGDSLVRIPTLEPLRGSKAHVGALLDSVDSAVQLVEQLTAT | not soluble
14 | MGSDKIHHHHHHMMKAQFTLTPSESKRLIAKGVKALPILRKALQNHTIILAGGTTNGFLVEELLNETLAEKTRYTVGLIADGKTGESKEEQRIPPFIIAKGKALDRSLHWKDFLPQLEPGDVFIKGGNALDSTGLAAVLVSNSMAGTIGAALGPLYARGVRLVVPIGLEKLIPDVREAVEFMASAPADTALGAKTGLVPMLGATVVTEITALETLYQVTAKCIGAGGVAGSEGAVTLVIEGEAAEVESALSLIQSCKGEPPVR | not soluble
